Results reported in the RNAGym collection of RNA variant scans (doi:10.1073/pnas.2313332121).

B1: TPR t1 (parent)
chain: GACCAAUCUGCCCUCAGAGCUCGAGAACAUCUUCGGAUGCAGAGGAGGCAGGCUUCGGUGGCGCGAUAGCGCCAACGUCCUCAACCUCCAAUGCAUCCCACCACAUGAUGAUGCCUGAAGAGCCUUGGUUUUUUG

Variants of: B1
Test: polymerase ribozyme fitness, log enrichment relative to wild type (log ratio); higher = more active; in vitro selection for triplet polymerase activity
In short: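 In triplicate, a single round of in vitro selection was run on each mutant library, PCR-built and transcribed, covering one subunit of a heterodimeric triplet polymerase ribozyme. Frozen incubation at −7 °C followed annealing with a biotinylated primer, partner subunit and triplets, and extended constructs were then gel-excised, streptavidin-captured and taken through RT-PCR. Fitness is the logarithm of genotype enrichment over wild-type enrichment, from inverse-variance-weighted replicate averages of Illumina-sequenced inputs and outputs. […] only genotypes with ≥10 input reads and ≥1 read per output were kept.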

Variant | polymerase ribozyme fitness (log ratio)
C72U U78C A83C | -0.433
C34A G45A C86A | -5.49
G17C G60C | -4.24
G65C C124A | -4.91
A6G C79G C104A | -4.14
A24C C86U G110A | -5.7
A74U A119G | 0.812
C73G A121C G122A | 0.495
C12A C53G U54C A121C | 1.77
U14G C89A C99G G113C C115U | -7.29
G25C U116C | -5.31
U21A U81A | -1.49
C73U U87A A91U U112A U116G | -4.55
G52C C115A | -1.03
G19A G60A U87A C114G | -3.18
G77A C80U G113A | -1.46
C49A G71A C82A G120U | -2.99
G39A C89G C101U | -1.85
G47A G58A G60A C79U | -2.31
U7G C124U | 1.55
A16U C73U A83U A95C | -2.3
A29G G117C | -3.99
A5U C8U C40U C123A | 1.55
G58C C62U | -1.01

Variant | polymerase ribozyme fitness (log ratio)
A43G A74C | -2.19
A41G C86A U87C G113U | -4.97
A50U U55G G58A | -5.41
C12A G36U G63A | -2.46
C15U C22U C72U G120C | -3.96
C79A C124G | -0.697
U9C G36C A50U C70A A75U U106A | -6.28
C53U U78C C89U A95G C101G C114U U125A G128A | -5.82
C3U A95G | 0.0555
C73A C86U U87A G117A U132A | -3.67
A5U C64U C85G C86U U109A C124G U133G | -6.39
A24G G58U | -1.2
G47A C64U | -2.13
C124U U133G | 0.97
A6C C8A A66U C85U | -1.77
C34A G117A | -3.53
A29U A66G | -3.28
U54C U109G | -5.15
C22A A26G A83U | -3.1
G10U C40G G44C A111C | -4.09
G61C C72A C101A G120U C123A | -0.675
A2C C4G G39C G69U C102U | -2.39
C8U U59A G60C G117U U131C | -0.987
C72G C115A | -0.17

Variant | polymerase ribozyme fitness (log ratio)
C89A C123A | -1.82
C82U C86G A121G | 1.16
C64U G77A | -0.391
A74U A84U U129G | -1.9
C4G G36U | -2.8
G42U G45A | -1.25
C56A U112A C114A U116G | -6.59
C49G C62A C86A U96A | -3.84
U7A G69U C80U C99U C124G | 0.126
C8U G23A U54C C73A | -6.59
C34A A66U C101U | -5.31
A6C A68G | -3.13
C56G C98A | -3.95
C12G C64U C73U U131G | -0.0751
U126G U130G | -3.64
G17U U96A A119G | -1.01
C3U G17U | -3.11
G113U G128A | -3.35
C12G G110A | -0.401
A37U C72A U106A G135U | -0.59
G42A U55G | -1.85
U14G G69U C85A | -2.32
C15G C76G C101A | -3.53
C13U U30C A46U | -5.06

Variant | polymerase ribozyme fitness (log ratio)
C3U C53U G117U A118G | -0.935
C11A A41U G47A U109A | -5.79
C114G U130G U133A | -2.19
C3U G117A U126A | -5.16
C13G C72G C102G G113A G128A | -5.75
G39U C56A | -1.06
U7A C72U A91C G122U | -2.12
G63U U67A | -6.27
A91U G113U | -3.5
C72A A111C | -0.314
G44A G61U C99U | -4.04
C49U C72G | -0.927
C56A C104U G117A | -1.3
A6U C8G G60A C72A U130C | -0.0324
A29G U126A | -2.42
C13A A18C G36A G42U A84C | -4.45
G60A A121G | 1.66
C11A G44C G48U | -4.1
U54G C62A A95C A121G | -6.12
A37U A41U C79G | -4.3
G58A A91C C101A C123G | -1.04
C4U A27U | -2.79
A5U G63U | -1.8
A41G A43U C70U A91C | -3.27

Variant | polymerase ribozyme fitness (log ratio)
G45A U106C | -1.09
A2G A41U A46U | -3.37
C13G C123G | 1.77
C115G G117A G135A | -3.04
A43C G44U A111G | -1.62
G63U C72G | -3.89
C56U C79A C99U C102A G120A G127U | -5.84
G61A C89G G93A | -2.18
A83U C85U C123G C124G | 1.28
C28A A68G A74U G93A C114G | -7.51
C12U G51A C79U C101A | -3.78
G48C A50G C53U C73G | -1.36
C4A G63A A83U A118G | -3.12
C3U A27U | -4.17
U21A C97G | -4.44
G10U C62U A111C G117C | -5.6
A90U G113A | -1.1
G48U C72G U96C | -1.54
C11G C56U A111U | -2.23
C80G G110C | -6.58
C13U G39C C88U C102U C104A G113A | -2.3
C20U G120U | -1.57
A29U C31G C34G G44A G60A C114U | -6.84
G69U C98U U129C | -1.15

Variant | polymerase ribozyme fitness (log ratio)
G47U G127U | -2.57
C62U A74U U78C G120A | -0.246
G10A G60A C82A C94U C123A | 1.22
G36C C70U G113C | -3.46
U7G G45C C88A C115A | 2.03
G48U A91U C104A | -5.89
C56U U78A | -0.32
C13U C73G | -0.465
C34G A46G A91C | -8.04
A5C U32C C53U G57A C85A | -3.78
A37U C82A G120C | 0.889
C22G C40A G69C G113A | -5.15
C34U C56G | -4.5
C64U A111G | 1.06
C8G A41C | -1.28
C49U C98A | -5.99
A5G A84U U112G | -0.141
C8U G47A U59A A74U C124A | 0.355
C13A A27C | -3.81
G57A C82A | -0.596
A2C C12A G110A U133A | -2.17
C3G C72A C94G C124A | -1.46
C8A G77U U106G C115G | -1.95
C76U C88A U133G | -0.912

Variant | polymerase ribozyme fitness (log ratio)
A43G G69C | -2.38
U9C C104U | 0.605
C64A G65A C97U G120A | -5.01
G47U G63C | -2.32
C40A C49G U55C A95C G120A | -2.38
A2U C12G A95U | -2.91
G39U C70U U96G G113U | -7.29
A50U U54A G63C U112A | -2.51
C8U C72A C76A | -1.75
G35A G61U | -3.61
A105U G113C | -5.86
C94G U106A G135U | -1.54
G57C G61A | -1.82
C40A A46U | -3.32
C3U G42U C56G | -2.49
G52A C73G C85A | -1.93
G48C G52C | -2.25
G60U G61A A91U | -2.61
C56A A84U C94A C114A | -3.7
G39U G58A A105C | -5.05
G47C C49G U55G C73G C97A A119G | -5.16
G60A U125G | -0.67
C34U A90U | -4.66
